From paper doi:10.1101/2020.05.28.119206 (bioRxiv, 2020)

Target: the molecule itself
Test: cryo-EM structure

B1: elastase-digested native human uromodulin filaments (UMODe) (domain or fragment)
chain: not shown
modifications: N-glycans at N322, N396, N513
binding result: binds
